From article PMC6609335

Experiments:
[1] = molecular target: Andes virus (ANDV) envelope glycoprotein Gc, wild type (Andes virus) (UniProt Q9E006); experiment: native gel or EMSA
[2] = molecular target: Andes virus (ANDV) envelope glycoprotein Gc, wild type (Andes virus) (UniProt Q9E006); experiment: sucrose gradient sedimentation

Substance: Andes virus (ANDV) envelope glycoprotein Gc, wild type (from UniProt Q9E006) (natural protein)
- stoichiometry N [1]: 3
- stoichiometry N [2]: 3
